B1: CD2-associated protein, residues 109 to 169; numbered along this chain, Q9Y5K6 (parent)
chain: KKRQCKVLFEYIPQNEDELELKVGDIIDINEEVEEGWWSGTLNNKLGLFPSNFVKELEVTD
B2: F-BAR and double SH3 domains protein 1, residues 467 to 528; numbered along this chain, Q86WN1 (parent)
chain: RALPCPAHVVFRYQAGREDELTITEGEWLEVIEEGDADEWVKARNQHGEVGFVPERYLNFPD

Variants of: B1
Assay: abundance fitness (aPCA) (normalised: wild type 0, dead -1); higher = more abundant; growth selection in yeast, the domain comes from the species named
Conditions: Homo sapiens

Abundance fitness, by site and new letter:
V59: W -0.117; S 0.163; K -0.283; L 0.013; F 0.229; I -0.087; E 0.174; R -0.131; P -0.138; M -0.219; C -0.123; A 0.001; N -0.342; T 0.01; H -0.012; Q -0.166; Y 0.036
E58: Y -0.045; W 0.098
T60: M -0.257; E 0.019; Y -0.489; V -0.399; S -0.039; H 0.045; C -0.183; K -0.006; D 0.183; W -0.198; R -0.366; Q 0.039; L 0.01
D61: Y -0.376; Q -0.014; P 0.04; T -0.329; H 0.346; K -0.582; N -0.273; M -0.106; E 0.283; A -0.29; V -0.312; L -0.301; R -0.261; S -0.692; C -0.561

Variants of: B2
Assay: as above
Conditions: Homo sapiens

Abundance fitness: each site, then its substitutions
V10: W -0.236; T -0.167; N -0.336; K -0.094; R -0.098; S -0.105; Q -0.733; Y -0.118; I -0.021; C -0.037; H -0.158; D -0.109; G -0.179; M 0.005; E -0.247; L -0.165; F -0.465; P -1.05
R12: W -0.455; D -0.024; Q -0.078; I -0.792; E 0.17; L -0.265; F -0.01; C -0.056; V -0.367; H -0.188; A 0.056; P -0.102; G 0.085; S 0.133; T 0.023; N 0.033
R1: C -0.544; H -0.2; F 0.053; G -0.238; K -0.339; Y -0.105; Q -0.294; S -0.153; L -0.47; E -0.431; I -0.052; N 0.002; M -0.548; D -0.298; V -0.519
A15: S -0.146; D -0.661; L -0.718; Y -0.875; V -0.585; E -0.438; M -0.79; R -0.178; Q -0.27; G -0.088; T -0.714; P -0.374; F -0.956; K -0.125; C -0.536; H -0.891
P6: H -0.038; C -0.12; F -0.285; R -0.077; D -0.432; W -0.29; G -0.209; L -0.321; V -0.243; S -0.344; N -0.617; E -0.294; Y -0.258; T -0.219; A -0.094; K -0.219; Q -0.222; M -0.357
Y13: H -0.109; S -0.356; G -0.463; N -0.38; A -0.504; E -0.959; T -0.629; L -0.595; D -0.648; K -0.16; R -0.226; M -0.594; P -0.711; C -0.486; W -0.167; I -0.742; V -0.785; F -0.06; Q -0.406
G16: Q 0.019; D -0.233; M 0.026; E 0.165; W -0.245; N 0.113; S 0.019; T -0.012; P -0.608; C 0.035; F -0.136; Y 0.497; A 0.024; R -0.064; K 0.077; H -0.027; I -0.118
V9: K -0.598; A 0.002; H -0.85; L -0.835; C -0.32; G -0.602; I -0.795; E -0.411; W -0.902; D -0.764; Y -0.631; Q -0.607; T -0.531; S -0.752; R -0.788; P -0.781; M -1.01
Q14: L -0.208; N 0.013; F -0.018; D 0.014; I -0.261; Y -0.241; H -0.071; P -0.636; C -0.363; G -0.377; S -0.106; V -0.14; A -0.153; T -0.204; E -0.024; W -0.481; K -0.078; M -0.121
E18: C -0.076; D 0.082; A -0.228
P4: H -0.472; M -0.247; F -0.451; C -0.346; R -0.505; Q -0.553; I -0.381; T -0.136; K -0.359; L -0.567; E -0.285; Y -0.477; W -0.664; N -0.194; A -0.496; G -0.333
H8: P -0.905; V -0.349; K -0.257; W -0.041; G -0.651; C -0.28; F -0.591; A -0.497; T -0.213; S -0.479; N -0.392; L -0.202; D -0.282; M -0.245; Q -0.168
F11: T 0.069; P -0.774; C 0.014; S 0.013; D 0.143; H 0.043; M 0.141; E 0.109; A 0.11; K 0.017; W -0.075; N 0.039; Q -0.103; L -0.061; I 0.12; G 0.095; Y 0.032
L3: H -0.206; V -0.439; I -0.058; C -0.121; W -0.53; R -0.333; D -0.486; M -0.121; A -0.693; F 0.05; T -0.201; S -0.193; N -0.127; P -0.242; K -0.276; Y 0.124; E -0.503; G -0.609; Q -0.362
A2: C 0.031; N 0.147; G 0.133; Y 0.389; E 0.196; R 0.053; F 0.144; V 0.128; K 0.169; Q 0.007; H -0.256; L -0.007; M 0.104; W -0.146; T 0.184; D 0.153
A7: C -0.441; P -0.788; T -0.917; Q -0.854; S -0.631; Y -0.528; R -0.617; M -0.938; G -0.328; L -0.866; D -0.976; V -0.454; K -1.05; N -0.521; E -0.742; W -0.98
C5: R -0.431; D -1.04; G -0.386; P -0.857; L -0.538; H -0.145; F -0.294; W -0.399; Y -0.215; Q -0.171; M -0.595; A -0.479; I -0.419
R17: S -0.016; F -0.214; G -0.09; Q -0.117; K 0.021; W -0.346; E -0.02; P -0.797; T -0.164; N 0.099; M -0.091; I -0.557; V -0.253; A -0.032; C 0.064; D -0.173; L -0.375; H 0.043

— the Human Domainome abundance scans (Beltran et al. 2025)
